Reference: article PMC5992148, “Molecular principles underlying dual RNA specificity in the Drosophila SNF protein”
Each block holds one binder with its values, some of them ahead of it.

How the values were obtained:
[1] = target: Drosophila U2A′ (dU2A′), triple cysteine variant, produced apart from dSNF (Drosophila melanogaster) (UniProt Q9V4Q8); test: ITC; dU2A′ as the sample (2.5 µM), dSNF^1-101 as titrant (25 µM); 22 °C; 50 mM KCl, 100 mM arginine, 10 mM sodium cacodylate, pH 6.5 (methods) or pH 7 (results)
dSNF1-101 (RRM1) [2] = target: T1, dSNF1-101 (RRM1) (UniProt P43332 1-101); test: filter binding; without dU2A'; ITC: 150 mM KCl, 1 mM MgCl2, 20 mM HEPES-NaOH pH 7.5, 5% glycerol, 10 C; NMR: 50 mM KCl, 20 mM sodium cacodylate pH 6.5, 2 mM EDTA, 23 C; filter binding: KCl varied, other conditions not stated; settings: protein: recombinant; tags: none stated; label: 32P internal; hairpin
T1 sequence: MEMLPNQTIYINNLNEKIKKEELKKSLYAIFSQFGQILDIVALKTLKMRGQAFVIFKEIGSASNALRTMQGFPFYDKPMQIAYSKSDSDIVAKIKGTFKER

dSNF1-96 (RRM1) [3] = target: T2, dSNF1-96 (RRM1) (Drosophila melanogaster, UniProt P43332 1-96); test: ITC; 1 mM Mg2+, 10 C; n 0.781; ITC: 150 mM KCl, 1 mM MgCl2, 20 mM HEPES-NaOH pH 7.5, 5% glycerol, 10 C; NMR: 50 mM KCl, 20 mM sodium cacodylate pH 6.5, 2 mM EDTA, 23 C; filter binding: KCl varied, other conditions not stated; settings: protein: recombinant; tags: N-terminal His6, TEV-cleaved; hairpin, 11-nt loop, U:G closing pair, blunt
T2 sequence: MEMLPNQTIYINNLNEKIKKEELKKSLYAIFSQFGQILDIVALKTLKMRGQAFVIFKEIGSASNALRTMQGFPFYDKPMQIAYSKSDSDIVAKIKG

dSNF1-96 (RRM1) [4] = target: T2, dSNF1-96 (RRM1); test: ITC; 1 mM Mg2+, 10 C; n 0.894; ITC: 150 mM KCl, 1 mM MgCl2, 20 mM HEPES-NaOH pH 7.5, 5% glycerol, 10 C; NMR: 50 mM KCl, 20 mM sodium cacodylate pH 6.5, 2 mM EDTA, 23 C; filter binding: KCl varied, other conditions not stated; settings: protein: recombinant; tags: N-terminal His6, TEV-cleaved; hairpin, 10-nt loop, 9-bp blunt stem
dSNF1-96 (RRM1) [5] = target: T2, dSNF1-96 (RRM1); test: crystal structure; 2.0 A; ITC: 150 mM KCl, 1 mM MgCl2, 20 mM HEPES-NaOH pH 7.5, 5% glycerol, 10 C; NMR: 50 mM KCl, 20 mM sodium cacodylate pH 6.5, 2 mM EDTA, 23 C; filter binding: KCl varied, other conditions not stated; settings: protein: recombinant; tags: N-terminal His6, TEV-cleaved; hairpin, blunt, 10-nt loop
dSNF1-101 (RRM1) [6] = target: T1, dSNF1-101 (RRM1); test: NMR chemical shift perturbation; 300 uM protein, 700 uM RNA; ITC: 150 mM KCl, 1 mM MgCl2, 20 mM HEPES-NaOH pH 7.5, 5% glycerol, 10 C; NMR: 50 mM KCl, 20 mM sodium cacodylate pH 6.5, 2 mM EDTA, 23 C; filter binding: KCl varied, other conditions not stated; settings: protein: recombinant; tags: none stated; hairpin

Kd [1]: 4.2 nM
dH [1]: -241 kcal/mol
B1: Drosophila melanogaster SNF RRM1, residues 1-101 (dSNF^1-101) (domain or fragment)
chain: MEMLPNQTIYINNLNEKIKKEELKKSLYAIFSQFGQILDIVALKTLKMRGQAFVIFKEIGSASNALRTMQGFPFYDKPMQIAYSKSDSDIVAKIKGTFKER

B2: dU2SLIV G13A (structured_RNA)
RNA: GGCCGGUAUUGCAAUACCGCCGGGUCC
binding signal (dSNF1-101 (RRM1) [2]): 200 fold lower affinity than wt N6

B3: dU2SLIV (ITC) (structured_RNA)
RNA: CCAGGACGUAUUGCAGUACCGCGUCCUGG
Kd (dSNF1-96 (RRM1) [3]): 782 nM

B4: dU1SLII (ITC) (structured_RNA)
RNA: CCAGGACGCAUUGCACCUCGCGUCCUGG
Kd (dSNF1-96 (RRM1) [4]): 34 nM

B5: dU2SLIV G10A (structured_RNA)
RNA: GGCCGGUAUUACAGUACCGCCGGGUCC
binding signal (dSNF1-101 (RRM1) [2]): 1000 fold lower affinity than wt N6

B6: dU1SLII 22-mer (crystal) (structured_RNA)
RNA: GGCCGCAUUGCACCUCGCGGCC
binding result (dSNF1-96 (RRM1) [5]): binds

B7: dU2SLIV G13C (structured_RNA)
RNA: GGCCGGUAUUGCACUACCGCCGGGUCC
binding signal (dSNF1-101 (RRM1) [2]): 16 fold higher affinity than wt N6

B8: dU1SLII (T7, NMR) (structured_RNA)
RNA: GGCCGGCAUUGCACCACGCGCCGGGUCC
binding result (dSNF1-101 (RRM1) [6]): binds
